# Results published in the RNAGym collection of RNA variant scans (doi:10.1073/pnas.2313332121).
# B1: TPR t1 (parent)
# chain: GACCAAUCUGCCCUCAGAGCUCGAGAACAUCUUCGGAUGCAGAGGAGGCAGGCUUCGGUGGCGCGAUAGCGCCAACGUCCUCAACCUCCAAUGCAUCCCACCACAUGAUGAUGCCUGAAGAGCCUUGGUUUUUUG
# Variants of: B1
# Assay: polymerase ribozyme fitness, log enrichment relative to wild type (log ratio); higher = more active; in vitro selection for triplet polymerase activity
# Outline: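 Mutant libraries of each subunit of a heterodimeric triplet polymerase ribozyme were built by PCR and transcribed. Each library went through one round of in vitro selection in triplicate: annealing with biotinylated primer, partner subunit and triplets, frozen incubation at −7 °C, gel excision of extended constructs, streptavidin-bead capture and RT-PCR. Input and output libraries were Illumina-sequenced; only genotypes with ≥10 input reads and ≥1 read per output were kept. Fitness is log2(genotype enrichment/wild-type enrichment), using inverse-variance-weighted replicate averages.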
row,Variant,polymerase ribozyme fitness (log ratio)
1,U59A C89U C124A U125A,1.78
2,G60C U130A,0.137
3,G60A G77U,-0.312
4,G60U C104A,-1.7
5,G60C U96A C101A A119U,-4.66
6,G61A U92C,-0.505
7,U59A C82A G93C,-0.829
8,U59C G93C G113U U133G,-3.53
9,G61A C88G C98G C123G,-6.3
10,U59G C99U U106A,-1.43
11,U59C C82A C88G,-2.83
12,G61A C85G,0.134
13,G58U C104U A105U G110A C124U U133G,-7.29
14,G57C C62U G135U,-1.15
15,G57U C101G U106A G122A,-0.938
16,G61C C64G A111C,-6.11
17,G58C C101G C114A,-3.77
18,G57U G69U,-0.378
19,G60A C99U G127A,-4.87
20,U59C A91C G120C U133C G135U,-0.803
21,U59C C72U G117A,-1.45

row,Variant,polymerase ribozyme fitness (log ratio)
1,U59A C114A,-1.7
2,G61A C73A G127A,-1.74
3,G60C C89U C123G,1.06
4,G61A C124G,1.77
5,G60C C88A U112A,-0.182
6,G60U A83C G117A,-2.26
7,U59A G77U G117U,-2.87
8,U59C U78G,-0.0388
9,G60C C86U U106G G120A,-2.2
10,U59C A119G,0.816
11,G61C C86A,-2.15
12,G60U G110A,-1
13,G60U G110U,-0.553
14,G60C G107U,-4.16
15,G60C G107A,-5.47
16,G58C C72U A119U,-0.967
17,U59G G61A,-2.76
18,G61A G77A C89U U126A,-2.77
19,G60U C115A U125G,0.39
20,U59A C89A,-1.85
21,G61C C85U,-1.81

row,Variant,polymerase ribozyme fitness (log ratio)
1,U59G G127U,-0.904
2,U59A A74C C82A G93C,-1.19
3,U59G C124U,1.25
4,G61A C88G C104U C123G,1.29
5,G58C C73G C80U C102A G113A,-5.77
6,G60A A121C,1.29
7,G58A C62A,-2.66
8,G60A A66U,-1.29
9,G61A C72A,-0.462
10,G58A C114G,-3.37
11,G58C G60U A118G,-0.24
12,G60A C99A A103C A111C,-6.52
13,G60A C70U C102A C115A,-3.29
14,G58C C85A,0.0552
15,G61A C88U,-0.64
16,G60U U78C,-0.915
17,G57C A83G U116G,-2.83
18,G60U G63A C97A C99A A111U G122U U130A,-6.95
19,G61C A111G,-0.983
20,G61C A111C,-1.98
21,G60C A74U C88G,-2.91

row,Variant,polymerase ribozyme fitness (log ratio)
1,G58C G69A C123A,-3.42
2,G57C G58A C114U,-3.53
3,G58U G60A U87A A103U,-5.31
4,G61A C104A G110A,-3.83
5,G60A G93A,0.0256
6,G60C C115A G120U,-0.0517
7,G60A C80U,-1.64
8,G61A A108U G120U,-6.8
9,G57C C115A,0.0474
10,G61A C102U,-1.04
11,U59A C114A U130A,-2.17
12,U59A U81A A119U,-0.551
13,G58U G61A,-0.176
14,G60A C104U,0.164
15,G60U U87G U129G,-0.951
16,U59G G77U G117A,-1.91
17,U59A G63C C82A G127A,-2.72
18,G60C U131A,-1.69
19,G61C A66U,-0.911
20,U59C G122A C123U G128C,-0.638
